# According to the nanobody polyreactivity screen of Harvey et al. (2022):
# Test: yeast display, Sf9 membrane polyspecificity reagent, FACS + sequencing; frameworks hold sequencing errors
# Method in brief: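 A nanobody's polyreactivity label depends on the gate it was sorted from. Yeast display cells were stained with 10% biotinylated, detergent-solubilized Sf9 membrane reagent for 1 hour at 4 °C, enriched on streptavidin microbeads and sorted by FACS. The low and high (top ~1%) gates were set on anti-HA fluorescence for expression and streptavidin fluorescence for reagent binding.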
row,Sequence,polyreactivity (PSR sort gate)
1,QVQRVESGGGLVQAGGSLRLSCAASGFTFRWYAMGWYRQAPGKEREMVAAISRSGASTYYADSVKGRFTISRDNAKNTVYLQMNSLKPEDTAVYYCAVLWHGRRPLYKLRTGPEYDYWGQGTQVTVSS,high polyreactivity
2,QVQLVESGGGLVQAGGSLRLSCAASGSTFAINAMGWYRQAPGKERELVAAITYSGGGTYYADSVKGRFTISRENAKNTVYLQMNSLKPEDTAVYYCYAYGRSWVFNYIGVFLYDYWGQGTQVTVSS,low polyreactivity
3,QVQLVESGGGLVQAGGSLRLSCAASGSIFTPNSMGSYRPAPGKERELVAAISSSSDRTYYADSVKGRFTISRDNAKNTVYLQRNSLKPEDTAVYYCAAYAQKRYYWGQGTEVTVSS,high polyreactivity
4,QVQLVESGGGLVQAGGSLRLSCAASGSIFGPYAMGWYRQAPGKERELVATINRGVTTYYADSVKGRFTISRDNAKNTVYLQMNSLKPEDTAVYYCAARTYAKRPGYYWGQGTQVTVSS,high polyreactivity
5,QVQLVESGGGLVQAGGSLRLSCAAYGSNFVFNAMGWYRQAPGKERELVAAISNGDGTNYADSVKGRFTISRDNAKNTVYFQINSLKPEDTAVYYCAAVWTTQIVIEYDYWGQGSQVTVSS,low polyreactivity
6,QVQLVESGGGLVQAGGSLRLSCAASGSTLGGNAMGWYRQAPGKERELVAAITSSAGSTYYADSVKGRFTISRDNAKNTVYLQMNSLKPEDTAVYYCATSRDYIGYDYWGQGTQVTVSS,low polyreactivity
7,QVQIVESGGGLVQAGGSLSLSCAASGRTFQRNAMGWYRQAPGKERELVAAITTGSRTYYADSVKGRFTISRDNAKNTVYLQMNSLKPEDTAVYYCAAVATRRDYGYWGQGTQVTVLS,high polyreactivity
8,QVQLVESGGGLFQAGGSLRLSCAASGFTFIPYTMGWYRQAPGKERELVASIISGGSTNYADSVKGRFTISRDNAKNTVYFQMKSLKPEDTAVYYCAAVYFYYCYGWYYYWGQGTQVTVSS,high polyreactivity
9,QVQLVESGGGLVQAGGSLRLSCAASGIIFRYYAMGWYRPAPGKERELVAAISSGGSTNYADSVKGRFTISRDNAKNTVYLQMNSLKPEDTAVYYCAADYTYNGLEYDYWGQGTQVTVSS,high polyreactivity
10,QVQLVESGGGLVQAGGSLRLSCAASGRIFQYNAMGWYRQATGKERELVAAITWSSGSTYYADSVKGRFTISRDNAKNTVYLQMNSLKPEDTAVYYCNTVRVLYYDRQFLFRGSRFGYWGQGTQVTVSS,high polyreactivity
11,QVQLVESGGGLVQAGGSLRLSCAGSGYIFAYNTIGWYRQAPGKERELVAAISRSGGSTYYPDSVKGRFTISRDNAKNTVYLQMNSLKPEDTAVYYCAARYSGYRVGQRSFCYWGQGTQVTVSS,high polyreactivity
12,QVQLVESGGGLVQAGGNLRLSCAASGFIFTRNAMGWYRQAPGKERELVAAISTSGDRTYYADSVKGRFTISRDNAKNTVYLQMNSLKPEDTAVYYCAVVRPRYVVRYDYWGQGTQVNVSS,high polyreactivity
13,QVQLVESGGGLVQAGGSLRLSCAASGSTFGIYAMGWYRPAPGKERELVAAISSGGSTNYADSVKGRFTISRDNAKNTVYLQMNCLKPEDSAVYYCAVESVYEYGGYVDSAYDYWGQGTQVTVSS,low polyreactivity
14,QVQLVESGGGLVQAGGSLRLSCAASGSIFGNNAMGWYRQAPGKERELVAAISGSGGTRYADSVKGRFTISRDNAKNTVYFQLNSLKPEDTAVYYCSADDSWGGFHSPKAIGYDYWGQGTQVTVSS,low polyreactivity
15,QVQLVESGGGLVQAGGSLRLSCAASGRTFSVNAMGWYRPAPGKERELVAAISWSTGSTYYADSVKGRFTISRDNAKNTVYLQMNSLKPEDTAVYYCAKLYEYRRSRYRTYGYWGQGTQVTVSS,high polyreactivity
16,QVQLVESGGGLVQAGGSLRLSCAASGIIFDRYAMGWYRQAPGKERELVAAISWSGGRTYYADSVKGRFTISRDNAKNTVYLQMNSLKPEDTAVYYCAAKPSVDLDYWGQGTQVTVSS,high polyreactivity
17,QVQLVESGGGLVQAGGRLRLSCAASGRTFGYNAMGWYRQAPGKERELVAAITYSGGRTYYADSVKGRFTISRDNAKNTVYLQMNSLKPEDTAVYYCAALTRRVKKYDYWGQGTQVTVSS,high polyreactivity
18,QVQLVESAGGLVQAGGSLRLSCAASGITHHHNAIGWSRQAPRKERELVAAITSNGGSTYYAVSVKGRFTISRDHAKNSVYLQINSLKPEDTAVYYCARDSKRLARYYYWGQGTQVTVSS,low polyreactivity
19,QVQLVESGGGLVQAGGSLRLSCAASGRTFHYYAMGWYRQAPGKERELVAAISRGGNTYYADSVKGRFTISRDNAKNTVYLQMNSLKPEDTAVYYCAKDNHFEAYRYDYWGQGTQVTVSS,high polyreactivity
20,QVQLVESGGGLVQAGGSLSLSCAASGSTLRYYDMGWYRQAPGKERELVAAISRGGSTYYADSVKGRFTISRDNAKNTVYLQMNSLKPEDTAVYYCNKEYPSSYEYDYWGQGTQVTVSS,low polyreactivity
21,QVQLVESGGGLVQAGGSLRVSCAASGYTFDLYAMGWYRQAPGKERELVADISSGGSTNYADSVKGRFTISRDNAKNTVYLQMNSLKPEDTAVYYCAVDADRTLFGQYYVSEYGGGYWGQGTQVTVSS,low polyreactivity
22,QVQLVESGGGLVQAGGSLRLSCAASGRIFRLYAMGWYRQAPGKERELVAAISKSGGSTYYADSVKGRFTISRDTATNTVYLQMNSLKPEDTAVYYCAADYRTHGGYEGTFDYWGQGTQVTVSS,low polyreactivity

row,Sequence,polyreactivity (PSR sort gate)
1,QVQLQESVGGLVQAGGSLRLSCAATGTIFTDRFMGWYRQAPGKERELVAGISQGTSTNYADSVKGRFTISRDNAKNTVYLQMNSLKPEDTAVYYCAADLSTGNTLPYWGQGTQVTVSS,high polyreactivity
2,QVQIVESGGGLDQAGGSLRLSCADSGSILYYYAMGCYRQAPGKETELVATITDSGDSTYYADSVKGRFTISRDNAKNTVYLQMNSLKPEDTAVYYCAAEGRYFYFTVKMDYWGQGTQVTVSS,low polyreactivity
3,QVQLVESGGGLVQAGGSLRLSCAASGSIFASNAMGWYRQAPGKERELVAAIDDDGSTDYADSVKGRFTISRDNAKNTVYLQMNSLKPEDTAVYYCAVVTFWWGWTKYRGGFYWGQGTQVTVSS,low polyreactivity
4,QVQLVESGGGLVQAGGSLRLSCAASGFIFRGNTMGWYRQAPGKERELVAAISASGGSTYYADSVKGRFTISRDNAKNTVYLQMNSLKPEDTAVYYCNVAVIYRSRPYWYGMDYWGQGTQVTVSS,high polyreactivity
5,QVQLVESGGGLVQAGGSLRLSCAASGSIFARYAMGWYRQAPGKERELVAAITSGGITNYADSVKGRFTISRDNAKNTVYLQKNSLKPEDTAVYYCAARRSGRVRYDYWGQGTQVTVSS,high polyreactivity
6,QVQLVESGGGLVQAGGSLRLSCAASGSTFEYNDMGWYRQAPGKERELVAAISSGGDTNYADSVKGRFTISRDNAKITVYLQMNSLKPEDTAVYYCAADDWAPYRWYYGYAGYYYWGQGTLVTVSS,low polyreactivity
7,QVQLVESGGGLVQAGGSLRLSCAASGRTFGDNAMGWYRQARGKERELVAAISSGDSTYYADSVKGRFTISRDNAKNSVYLQMNSLKPEDTAVYYCAARWRYTFYVSYYYWGQGTQVTVSS,high polyreactivity
8,QVQLVESGGGLVQAGGSLRLSCAASGIISGEYAMGWYRQAPGKERELVAAIDYSGVSTYYADSVKGRFTISRDNAKNTVYLQMNSLKPEDTAVNYCAAYPSSEYDYWGQGTQVTVSS,low polyreactivity
9,QDQLVESGGGLVQAGGSLRLSCAASGITSSMNSMGWYRQAPGKERELVAAISWRGGSTYYADSVKGRFTISRDNAKNTVYLQLNSLKPEDTAVYYCAVRGKFDYWGQGTQVTVSS,high polyreactivity
10,QVQLVESGGGLVQAAGSRRLSCDASGRIFGWYAMGWSRQAPGKERELVAAITNSGGSPYCADSVKGRFTISRDNAKNTVYLERKSLIPEDTAVYYCARSFSFYGKRKYDYWGQGTQVTVSS,high polyreactivity
11,QVQLVESGGGLVQAGGSLRLTCAASGRIFYQYALGWYRQAPGKERELVSSITTSGGNTYYADSVKVRFTISRDNAKNTVYLQMNSLKPEDTAVYYCASRFNWRQWLYEYWGQGTQVSVSS,low polyreactivity
12,QVQLVESGGGLVQAGGSLRLSCAASGRIFPYYAMGWYRQAPGKVRELVASIRYSAGNTYYADSVKGRFTISRDNAKNTVYLQMNSLKPEDTAVYYCWYTQNTLGNYWGQGTQVTVSS,low polyreactivity
13,QVQLVESGGGLVEAGGSLRLSCAASARTFIGNAMVWYRQAPGKERELVAGIDSDGSTNYADSVNGRFTSSRDNAKNTVYLQMNSLKPEDTAVYYCAAVQGYRFYEYYYWGQGTQVTVSS,low polyreactivity
14,QFQLVESGGCLVQAGCSLRLSCAASGFIIFSNAMGLYRQAPGKERELVAAISRIGVSTFYADSVKGRLTISRDNAKNTVYLQMNSLKPEDTAVYYCNKSNPDYDGLAIHAFDYWGQGTQVTVSS,low polyreactivity
15,QVQLVESGGGLVQAGGSLRLSCAASGITFGSYAMGWYRQAPGKEREFVAAISLSGGNTYYADSVKGRFTISRDNAKNTVYLQMNSLKPEDTAVYYCAADYEYSGYGYWGQGTQVTGSS,high polyreactivity
16,QVQLVESGGGLVQAGVSLRLSCAASGLTFNYYDMGWYRQAPGKERELVAAISRSGTNTSYADSEKGRFTISRDNAKNTVYLQMNSLKPEDTAVYYCNADYYSRIVGVRIYDYWGQGTQVTVSS,low polyreactivity
17,QVQLVESGGGLVQAGGSLLLSCAASGLTFTDNAMGWSRQAPGKERELVAAISQSGGRTFYADSVKGRFTISRDNAKNTVYLQINSLKPEDPAVYYCNSRRGSVAKYGYLGQGTQVTVSS,high polyreactivity
18,QVQLVESGGGLVPAGGSLRLSCAASGRIFFRNAMGWYRQAPGKERELVAAITYSGGSTYYADSVKGRFTISRDNAKNTVYLQMNSLKPEDTAVSYCAAGYWFSYSRVTRYDYWGQGTQVTVSS,high polyreactivity
19,QDQLVESGGGLVQAGGSLRLSCAASGTIFDVYAMGWYIQAPGKERELVAAISYGGGSTYYADSVKGRFTISRDNAKNTVYLQINSLKPEDTAVYYCAADDDVYGLEYGYWGQGTQVTVSS,low polyreactivity
20,QVQLVESWGGLVHAGGSLRLSCAASGSIFDWYAMGWYRQAPGTERELVAAINEGGGSTYYADSVKGRFTISRDNAKNSVYLQMNSLKPEDTAVYYCAAGDYYLQDNYWGQGTQVTVSS,low polyreactivity
21,QVQLVESGGGLVQAGGSLRLSCAASGFIFTWYDMGWYRQAPGKERELVAAISRSGGSTYYADSVKGRFTISRDNAKNTVYLQMNSLKPEDTAVYYCIVYRSKKRYGWGEDDYWGQGSQVTVSS,high polyreactivity
